The labels stand for the following.
B1: XPA23 Fab, heavy chain V50R (Fab, V domains shown)
VH: EVQLLESGGGLVQPGGSLRLSCAASGFTFSKYFMFWVRQAPGKGLEWVSRISPSGGMTRYADSVKGRFTISRDNSKNTLYLQMNSLRAEDTAVYYCARVGYGGNSDYWGQGTLVTVSS
VL: DIQMTQSPSSVSASVGDRLTIICRASQDINRWLAWYQQTPGNAPKLLIHSATSLQSGVPSRFSGSGSGTDFTLTINSLQPEDFATYYCQQADSFPLTFGGGTKVEIK
B2: XPA23 Fab, heavy chain V99S (Fab, V domains shown)
VH: EVQLLESGGGLVQPGGSLRLSCAASGFTFSKYFMFWVRQAPGKGLEWVSVISPSGGMTRYADSVKGRFTISRDNSKNTLYLQMNSLRAEDTAVYYCARSGYGGNSDYWGQGTLVTVSS
VL: DIQMTQSPSSVSASVGDRLTIICRASQDINRWLAWYQQTPGNAPKLLIHSATSLQSGVPSRFSGSGSGTDFTLTINSLQPEDFATYYCQQADSFPLTFGGGTKVEIK
B3: XPA23 Fab, heavy chain V99E (Fab, V domains shown)
VH: EVQLLESGGGLVQPGGSLRLSCAASGFTFSKYFMFWVRQAPGKGLEWVSVISPSGGMTRYADSVKGRFTISRDNSKNTLYLQMNSLRAEDTAVYYCAREGYGGNSDYWGQGTLVTVSS
VL: DIQMTQSPSSVSASVGDRLTIICRASQDINRWLAWYQQTPGNAPKLLIHSATSLQSGVPSRFSGSGSGTDFTLTINSLQPEDFATYYCQQADSFPLTFGGGTKVEIK
B4: XPA23 Fab, heavy chain V99Q (Fab, V domains shown)
VH: EVQLLESGGGLVQPGGSLRLSCAASGFTFSKYFMFWVRQAPGKGLEWVSVISPSGGMTRYADSVKGRFTISRDNSKNTLYLQMNSLRAEDTAVYYCARQGYGGNSDYWGQGTLVTVSS
VL: DIQMTQSPSSVSASVGDRLTIICRASQDINRWLAWYQQTPGNAPKLLIHSATSLQSGVPSRFSGSGSGTDFTLTINSLQPEDFATYYCQQADSFPLTFGGGTKVEIK
B5: XPA23 Fab, heavy chain Y32N (Fab, V domains shown)
VH: EVQLLESGGGLVQPGGSLRLSCAASGFTFSKNFMFWVRQAPGKGLEWVSVISPSGGMTRYADSVKGRFTISRDNSKNTLYLQMNSLRAEDTAVYYCARVGYGGNSDYWGQGTLVTVSS
VL: DIQMTQSPSSVSASVGDRLTIICRASQDINRWLAWYQQTPGNAPKLLIHSATSLQSGVPSRFSGSGSGTDFTLTINSLQPEDFATYYCQQADSFPLTFGGGTKVEIK
B6: XPA23 Fab, heavy chain V99F (Fab, V domains shown)
VH: EVQLLESGGGLVQPGGSLRLSCAASGFTFSKYFMFWVRQAPGKGLEWVSVISPSGGMTRYADSVKGRFTISRDNSKNTLYLQMNSLRAEDTAVYYCARFGYGGNSDYWGQGTLVTVSS
VL: DIQMTQSPSSVSASVGDRLTIICRASQDINRWLAWYQQTPGNAPKLLIHSATSLQSGVPSRFSGSGSGTDFTLTINSLQPEDFATYYCQQADSFPLTFGGGTKVEIK
B7: XPA23 Fab, heavy chain V99K (Fab, V domains shown)
VH: EVQLLESGGGLVQPGGSLRLSCAASGFTFSKYFMFWVRQAPGKGLEWVSVISPSGGMTRYADSVKGRFTISRDNSKNTLYLQMNSLRAEDTAVYYCARKGYGGNSDYWGQGTLVTVSS
VL: DIQMTQSPSSVSASVGDRLTIICRASQDINRWLAWYQQTPGNAPKLLIHSATSLQSGVPSRFSGSGSGTDFTLTINSLQPEDFATYYCQQADSFPLTFGGGTKVEIK
B8: XPA23 Fab, heavy chain V50W (Fab, V domains shown)
VH: EVQLLESGGGLVQPGGSLRLSCAASGFTFSKYFMFWVRQAPGKGLEWVSWISPSGGMTRYADSVKGRFTISRDNSKNTLYLQMNSLRAEDTAVYYCARVGYGGNSDYWGQGTLVTVSS
VL: DIQMTQSPSSVSASVGDRLTIICRASQDINRWLAWYQQTPGNAPKLLIHSATSLQSGVPSRFSGSGSGTDFTLTINSLQPEDFATYYCQQADSFPLTFGGGTKVEIK
B9: XPA23 Fab, heavy chain Y32E (Fab, V domains shown)
VH: EVQLLESGGGLVQPGGSLRLSCAASGFTFSKEFMFWVRQAPGKGLEWVSVISPSGGMTRYADSVKGRFTISRDNSKNTLYLQMNSLRAEDTAVYYCARVGYGGNSDYWGQGTLVTVSS
VL: DIQMTQSPSSVSASVGDRLTIICRASQDINRWLAWYQQTPGNAPKLLIHSATSLQSGVPSRFSGSGSGTDFTLTINSLQPEDFATYYCQQADSFPLTFGGGTKVEIK
B10: XPA23 Fab, heavy chain V50Y (Fab, V domains shown)
VH: EVQLLESGGGLVQPGGSLRLSCAASGFTFSKYFMFWVRQAPGKGLEWVSYISPSGGMTRYADSVKGRFTISRDNSKNTLYLQMNSLRAEDTAVYYCARVGYGGNSDYWGQGTLVTVSS
VL: DIQMTQSPSSVSASVGDRLTIICRASQDINRWLAWYQQTPGNAPKLLIHSATSLQSGVPSRFSGSGSGTDFTLTINSLQPEDFATYYCQQADSFPLTFGGGTKVEIK
B11: XPA23 Fab, heavy chain Y32F (Fab, V domains shown)
VH: EVQLLESGGGLVQPGGSLRLSCAASGFTFSKFFMFWVRQAPGKGLEWVSVISPSGGMTRYADSVKGRFTISRDNSKNTLYLQMNSLRAEDTAVYYCARVGYGGNSDYWGQGTLVTVSS
VL: DIQMTQSPSSVSASVGDRLTIICRASQDINRWLAWYQQTPGNAPKLLIHSATSLQSGVPSRFSGSGSGTDFTLTINSLQPEDFATYYCQQADSFPLTFGGGTKVEIK
B12: XPA23 Fab, heavy chain Y32D (Fab, V domains shown)
VH: EVQLLESGGGLVQPGGSLRLSCAASGFTFSKDFMFWVRQAPGKGLEWVSVISPSGGMTRYADSVKGRFTISRDNSKNTLYLQMNSLRAEDTAVYYCARVGYGGNSDYWGQGTLVTVSS
VL: DIQMTQSPSSVSASVGDRLTIICRASQDINRWLAWYQQTPGNAPKLLIHSATSLQSGVPSRFSGSGSGTDFTLTINSLQPEDFATYYCQQADSFPLTFGGGTKVEIK
B13: XPA23 Fab, heavy chain V99N (Fab, V domains shown)
VH: EVQLLESGGGLVQPGGSLRLSCAASGFTFSKYFMFWVRQAPGKGLEWVSVISPSGGMTRYADSVKGRFTISRDNSKNTLYLQMNSLRAEDTAVYYCARNGYGGNSDYWGQGTLVTVSS
VL: DIQMTQSPSSVSASVGDRLTIICRASQDINRWLAWYQQTPGNAPKLLIHSATSLQSGVPSRFSGSGSGTDFTLTINSLQPEDFATYYCQQADSFPLTFGGGTKVEIK
B14: XPA23 Fab, heavy chain V50S (Fab, V domains shown)
VH: EVQLLESGGGLVQPGGSLRLSCAASGFTFSKYFMFWVRQAPGKGLEWVSSISPSGGMTRYADSVKGRFTISRDNSKNTLYLQMNSLRAEDTAVYYCARVGYGGNSDYWGQGTLVTVSS
VL: DIQMTQSPSSVSASVGDRLTIICRASQDINRWLAWYQQTPGNAPKLLIHSATSLQSGVPSRFSGSGSGTDFTLTINSLQPEDFATYYCQQADSFPLTFGGGTKVEIK
B15: XPA23 Fab, heavy chain Y32H (Fab, V domains shown)
VH: EVQLLESGGGLVQPGGSLRLSCAASGFTFSKHFMFWVRQAPGKGLEWVSVISPSGGMTRYADSVKGRFTISRDNSKNTLYLQMNSLRAEDTAVYYCARVGYGGNSDYWGQGTLVTVSS
VL: DIQMTQSPSSVSASVGDRLTIICRASQDINRWLAWYQQTPGNAPKLLIHSATSLQSGVPSRFSGSGSGTDFTLTINSLQPEDFATYYCQQADSFPLTFGGGTKVEIK

For this assay, the target named is T1, IL-1beta (UniProt P01584 117-269).
T1 construct: also called IL-1β
Nature of the assay: Biacore.
For B1, the binding result is on record as “no binding”.
Consider B2, for which the binding result was “no binding”.
B3: the binding result is “no binding”.
Still for that read-out and setting: in the case of B4 it was “no binding”.
Consider B5, for which the “fold difference in affinity vs parental” value was found to be 0.04 fold.
Still for that read-out and setting: in the case of B6 it was 0.03 fold.
Take B7: the binding result is “no binding”.
Still for that read-out and setting: in the case of B8 it was “no binding”.
Turning to B9, the “fold difference in affinity vs parental” value was found to be 0.12 fold.
With B10, the binding result is recorded as “no binding”.
As to B11, the “fold difference in affinity vs parental” value was 0.75 fold.
Same read-out and setting: the figure for B12 is 0.68 fold.
Regarding B13, the binding result is listed as “no binding”.
Still for that read-out and setting: in the case of B14 it was “no binding”.
Take B15: the “fold difference in affinity vs parental” value was 0.62 fold.
